The term stoichiometry N denotes a count of units in the complex or per binding partner.

The data set concerns the molecule itself. The experiment in a line: FRET or BRET. Background: Bioluminescence resonance energy transfer reports proximity on the nanometre scale.

B1: full-length EphA3 (erythropoietin-producing hepatocellular carcinoma A3 receptor tyrosine kinase) tagged at the C-terminus with mTurq or eYFP (receptor, UniProt P29320 21-983, looked up)
chain: ELIPQPSNEVNLLDSKTIQGELGWISYPSHGWEEISGVDEHYTPIRTYQVCNVMDHSQNNWLRTNWVPRNSAQKIYVELKFTLRDCNSIPLVLGTCKETFNLYYMESDDDHGVKFREHQFTKIDTIAADESFTQMDLGDRILKLNTEIREVGPVNKKGFYLAFQDVGACVALVSVRVYFKKCPFTVKNLAMFPDTVPMDSQSLVEVRGSCVNNSKEEDPPRMYCSTEGEWLVPIGKCSCNAGYEERGFMCQACRPGFYKALDGNMKCAKCPPHSSTQEDGSMNCRCENNYFRADKDPPSMACTRPPSSPRNVISNINETSVILDWSWPLDTGGRKDVTFNIICKKCGWNIKQCEPCSPNVRFLPRQFGLTNTTVTVTDLLAHTNYTFEIDAVNGVSELSSPPRQFAAVSITTNQAAPSPVLTIKKDRTSRNSISLSWQEPEHPNGIILDYEVKYYEKQEQETSYTILRARGTNVTISSLKPDTIYVFQIRARTAAGYGTNSRKFEFETSPDSFSISGESSQVVMIAISAAVAIILLTVVIYVLIGRFCGYKSKHGADEKRLHFGNGHLKLPGLRTYVDPHTYEDPTQAVHEFAKELDATNISIDKVVGAGEFGEVCSGRLKLPSKKEISVAIKTLKVGYTEKQRRDFLGEASIMGQFDHPNIIRLEGVVTKSKPVMIVTEYMENGSLDSFLRKHDAQFTVIQLVGMLRGIASGMKYLSDMGYVHRDLAARNILINSNLVCKVSDFGLSRVLEDDPEAAYTTRGGKIPIRWTSPEAIAYRKFTSASDVWSYGIVLWEVMSYGERPYWEMSNQDVIKAVDEGYRLPPPMDCPAALYQLMLDCWQKDRNNRPKFEQIVSILDKLIRNPGSLKIITSAAARPSNLLLDQSNVDITTFRTTGDWLNGVWTAHCKEIFTGVEYSSCDTIAKISTDDMKKVGVTVVGPQKKIISSIKALETQSKNGPVPV
On to B1, for which the “stoichiometry N” value was 2.

Source of the values: paper PMC4692061 (Biochemical Journal, 2015).
